Experimental data: patent US12552866B2, “Internalizing binding molecules targeting receptors involved in cell proliferation or in cell differentiation” (LinXis B.V., priority 2019, dated 2026)

Tests used:
[1] = tested on: hIGF2R expressing SCC cells; assay: Kinetic internalization assay on hIGF2R expressing SCC cells; assay type: cell-based, human; details: 10 nM IRD800CW conjugate, 37° C., up to 12 minutes
Procedure: (§1) (FIG. 10D). […] The differences in internalization are possibly related to the differences in IGF2R expression levels on the target cells. […] Summarizing, biparatopic 13F11-13E8 clearly internalizes in cells expressing hIGF2R on the cell surface. The rate of internalization (endocytic rate constant, ke) of biparatopic constructs 13F11-13E8 and 13E8-13F11 was determined with a kinetic internalization assay on SCC-VII cells transfected with hIGF2R and rIGF2R. Briefly, 10 nM of IRD800CW conjugated 13F11-13E8 or 13E8-13F11 (conjugation method as described in example 9.2) was added to hIGF2R expressing SCC cells or rIGF2R expressing SCC cells and incubated at 37° C. for different time points up to 12 minutes. Internalization was then purposely halted by putting the cells on ice. Subsequently, cells were washed with cold PBS and the non-internalized VHH construct (bound fraction) was separated from the internalized construct (internalized fraction) using an acid-wash, as described above, after which the fluorescence of both fractions were measured. Both constructs internalize with similar endocytic rate constants (ke around 1.5 min-1) in the hIGF2R expressing SCC cells (FIG. 17). Internalization was also observed in rIGF2R expressing SCC cells as a clear increase in fluorescence over time can be shown in FIG. 17 (ke around 0.7 min-1).

[2] = In vivo pharmacokinetics in healthy Sprague-Dawley rats (serum ELISA); design: species or system rat; details: rat, i.v., approximately 3 mg/kg; LOD approximately 20 nM
Procedure: The in vivo pharmacokinetic properties of 13F11-13E8-ABD was compared to 13F11-13E8 without the ABD moiety in healthy Sprague-Dawley rats. In brief, rats were dosed intravenously with approximately 3 mg/kg body weight and blood samples were taken at different time points and the concentration of the VHH constructs were determined using an ELISA on immobilized hIGF2R-ECD.

activated HSCs LX-2 = assay: Internalization in living LX-2 cells with pHrodo red conjugates; assay type: cell-based, human; details: 50 nM pHrodo-red conjugate
Description: Internalization of monovalent 13F11 and biparatopics 13F11-13E8 and 13E8-13F11 in living activated HSCs LX-2 was visualized using the pHrodo pH dependent probe (ThermoFisher Scientific). The pH probe becomes more fluorescent as the pH of the surroundings decreases accordingly. Endosomes and lysosomes have a pH maintained at 6.5 and 4.5, respectively, compared to cytoplasmic pH of 7.0, and thus internalization of a VHH-pHrodo construct can be visualized when it internalizes via the endosomal pathway. LX-2 cells were incubated at 37° C. for 2 hours with 50 nM of pHrodo-red conjugated 13F11, 13F11-13E8 and 13E8-13F11 (conjugation method as described in example 9.2). Images were taken at 5 min. intervals using a wide-field PEXScope microscope (Nikon) with a mCherry filter and 40× oil objective. […] Additionally, both internalized 13F11-13E8 and 13E8-13F11 accumulate into perinuclear compartments (endosomes/lysosomes).

[3] = tested on: rIGF2R expressing SCC cells; assay: Kinetic internalization assay on rIGF2R expressing SCC cells; assay type: cell-based, rat; details: 10 nM IRD800CW conjugate, 37° C., up to 12 minutes
Procedure: as §1

hIGF2R-ECD = target: T1, hIGF2R-ECD (Homo sapiens, UniProt P11717); assay: Binding assay / titration ELISA on recombinant hIGF2R-ECD; details: construct conjugated to Alexa Fluor 647, direct read out; KD+SEM, n=2; read-out: calculated affinity (KD)
T1 construct: recombinant human extracellular domain of IGF2R (hIGF2R-ECD)
Procedure: The 15 unique hIGF2R binders (Example 1.1, FIG. 2) were produced and purified as described in examples 2 and 3. The apparent affinities were determined with binding assays on hIGF2R-ECD. Briefly, three-fold serial VHH dilutions, starting from 1 μM, were added onto hIGF2R-ECD coated plates. After 2 hours of incubation, plates were washed and bound VHH was detected using a VHH-specific IgG antibody, followed by an IRD800CW-conjugated IgG-specific antibody. […] VHH 13F11 was also produced with a C-terminal free cysteine and conjugated using maleimide chemistry to Alexa Fluor 647 (13F11-A647 in FIG. 8A, conjugation method as described in example 9.2). A titration ELISA (direct read out at 647 nm) with this construct was carried out on hIGF2R-ECD to determine whether the affinity was affected after site directed conjugation (FIG. 8B). The KD and Bmax were calculated in Graphpad (version 8.3), using one-site specific binding analysis (FIG. 8C).
Based on their high affinity and binding to non-overlapping receptor epitopes, VHHs 13F11 and 13E8 were selected for the design of biparatopic and bivalent VHH constructs. Two VHHs were fused with a flexible linker, consisting of three Gly-Gly-Gly-Gly-Ser repeats (FIG. 8A). The sequences were codon optimized for expression in E. coli and obtained as synthesized DNA fragments from GeneArt. The DNA fragments encoding VHHs were cloned into a vector pET28-based vector introducing a C-terminal free cysteine for site-directed conjugation and His6 tag for IMAC purification (FIG. 8A). The constructs were produced and purified as described in example 3. The constructs were conjugated to Alexa Fluor 647 (conjugation method as described in example 9.2) and titration ELISAs on recombinant hIGF2R-ECD (as described in example 4.1) were performed to determine the KD and Bmax (calculated in Graphpad (version 8.3), using one-site specific binding analysis) (FIG. 8C).
Next, 13F11-13E8 was genetically re-engineered to include an in vivo half-life extender in the form of an albumin binding domain (ABD) as described by Johansson et al (Structure, specificity, and mode of interaction for bacterial albumin-binding modules, J. Biol. Chem. 2002 (277): 8114-8120) and subsequently produced and purified as described in Example 3. Subsequently, 13F11-13E8-ABD was conjugated to IRDye800CW (F11E8-ABD-IRD800, conjugation method as described in example 9.2) and the binding affinities of the biparatopic VHH as well as the ABD unit was determined. […] The binding affinity (KD) of F11-E8-ABD-IRD800 to rat serum albumin (RSA) was 30 nM and to mouse serum albumin (MSA) and human serum albumin (HSA) the binding affinity was approximately 200 nM.

[4] = tested on: mock transfected NIH 3T3 2.2 cells; assay: Internalization in mock transfected NIH 3T3 2.2 cells; assay type: cell-based; details: 25 nM VHH conjugated to Alexa Fluor 647
Procedure: (§2) To assess if monovalent 13F11 and biparatopic 13F11-13E8 are internalized in the hIGF2R expressing cells, A549 cells (FIG. 16A) and NIH 3T3 2.2 cells transiently transfected with hIGF2R (FIG. 16B) were incubated with 25 nM VHH conjugated to Alexa Fluor 647 (conjugation method as described in example 9.2). A Mouse anti-IGF2R mAb was included to detect IGF2R expression on the hIGF2R transfected cells NIH 3T3 2.2 (FIG. 16B, right column), the mAb was detected with a goat anti-mouse mAb conjugated to Alexa Fluor 555. Additionally, mock transfected NIH 3T3 2.2 cells were incubated with 13F11 and 13F11-13E8 (FIG. 16C). […]
(§3) (FIG. 10D). […] The rate of internalization (endocytic rate constant, ke) of biparatopic constructs 13F11-13E8 and 13E8-13F11 was determined with a kinetic internalization assay on SCC-VII cells transfected with hIGF2R and rIGF2R. […] Subsequently, cells were washed with cold PBS and the non-internalized VHH construct (bound fraction) was separated from the internalized construct (internalized fraction) using an acid-wash, as described above, after which the fluorescence of both fractions were measured. […] Internalization was also observed in rIGF2R expressing SCC cells as a clear increase in fluorescence over time can be shown in FIG. 17 (ke around 0.7 min-1).

[5] = tested on: NIH 3T3 2.2 cells transiently transfected with hIGF2R; assay: Internalization in NIH 3T3 2.2 cells transiently transfected with hIGF2R; assay type: cell-based, human; details: 25 nM VHH conjugated to Alexa Fluor 647
Procedure: as §2, §3

[6] = tested on: A549 cells (IGF2R positive); assay: Internalization in A549 cells (acid wash, confocal); assay type: cell-based, human; details: 25 nM VHH conjugated to Alexa Fluor 647
Procedure: as §2, §3

B1: 13F11-13E8: biparatopic anti-IGF2R VHH construct, 13F11 and 13E8 fused with (Gly-Gly-Gly-Gly-Ser)3 linker (protein)
chain: EVQLVESGGRLVQPGDSLRLSCAASGRTFSDNAMGWFRQAPGKERRFVAGISWAGGSTYYSDSVKGRFTISRDNAKNTVYLQMNSLKPEDTAVYYCAAGLRAWVQRMPKDYNYWGQGTQVTVSSGGGGSGGGGSGGGGSEVQLVESGGGLVQAGGSLRLSCAASRSISPMGWYRQAPGKQRELVAIMPSSGPPIYADSVQGRFTISRDNAKNTVYLQMNSLKPEDTAVYYCNVGGGYWGQGTQVTVSS
modifications: left off: small tags and cut ends
notes: biparatopic anti-IGF2R VHH construct, 13F11 and 13E8 fused with (Gly-Gly-Gly-Gly-Ser)3 linker
- endocytic rate constant (ke) [1]: around 1.5 min-1
- clearance from circulation [2]: could not be detected anymore within two hours after injection
- intracellular fluorescence compared to the monovalent construct (activated HSCs LX-2; 37° C., from 15 min. onwards): more pronounced increase in intracellular fluorescence
- rate of internalization compared to 13E8-13F11 (activated HSCs LX-2; 40-min. time period): higher rate of internalization
- endocytic rate constant (ke) [3]: around 0.7 min-1
- Kd (hIGF2R-ECD): 2.5 ± 1.87 nM
- internalization in mock transfected NIH 3T3 2.2 cells [4]: did not internalize
- internalization in hIGF2R transfected NIH 3T3 2.2 cells [5]: did internalise
- internalization in A549 cells [6]: clearly internalized
